Measured values: patent publication US20150307599A1 (GARVAN INSTITUTE OF MEDICAL RESEARCH, published 2015)
Where no end group is shown, it is not given here.

How the values were obtained:
Experiment in all cases: indirect ELISA, peptide coated at 20 ug/mL, MAb at 1 ug/mL
[1] = target: T1, Peptide 2p17 (HBY with polyAlanine C terminus) (C-terminal amide (-NH2))
T1 construct: HBY with four alanine residues added to the C-terminus
T1 peptide: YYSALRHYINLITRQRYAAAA
Method: (§1) ELISA was used to map the reactivity of purified MAb 5E12-B7 against the peptides described in Table 3. Briefly, ELISA microwell plates (96-well Maxisorp, Nunc) were coated overnight at 4° C. with 50 μL of mapping peptides (Table 3) diluted to 20 μg/mL in carbonate coating buffer (CCB). Between each of the following steps, microwell plates were washed three times with PBST using a plate washer (BioTek). Coated wells were blocked with 200 μL PBS containing 5% w/v skim milk (Diploma). Blocked wells were incubated for 1 hr with 50 μL of MAb 5E12-B7 diluted to 1 μg/mL in skim milk/PBST. Wells were then incubated for 1 hr with 50 μL Peroxidase-conjugated AffiniPure F(ab)2 fragment goat anti-mouse secondary antibody (Jackson) diluted 1:5000 in skim milk/PBST. Ig binding was detected by incubation of wells with 50 μL TMB substrate (Becton Dickinson). Substrate reaction was stopped after 15 min with 50 μL 1M H₂SO₄ and O.D. 450 nm was measured.

[2] = target: T2, Peptide 2p15 (Poly Ala with shrinking NPY C term)
T2 construct: 15 alanines followed by RY-amide
T2 peptide: AAAAAAAAAAAAAAARY-NH2
Method: as §1

[3] = target: T3, Peptide 1p18 (NPY last 17 residues Alanine Scan) (C-terminal amide (-NH2))
T3 construct: NPY 25-mer with alanine at NPY residue 36
Method: as §1

[4] = target: T4, Peptide 2p16 (Poly Ala with shrinking NPY C term)
T4 construct: 16 alanines followed by Y-amide
T4 peptide: AAAAAAAAAAAAAAAAY-NH2
Method: as §1

[5] = target: T5, Peptide 1p16 (NPY last 17 residues Alanine Scan) (C-terminal amide (-NH2))
T5 construct: NPY 25-mer with alanine at NPY residue 34
Method: as §1

[6] = target: T6, Peptide 1p17 (NPY last 17 residues Alanine Scan) (C-terminal amide (-NH2))
T6 construct: NPY 25-mer with alanine at NPY residue 35
Method: as §1

- binding result [1]: no binding
- binding result [2]: no binding
- binding result [3]: no binding
- binding result [4]: no binding
- binding result [5]: no binding
- binding result [6]: no binding
B1: MAb 5E12-B7 (antibody, V domains shown)
VH: QVQLQHPGTEVVKPGASVKLSCKASGYTFTNYWMHWVKQRPGQGLEWIGNIDPSNGGTNYNEKFKSKATLTVDKSSSTAYMQLSSLTSEDSAVYYCASFAYWGQGTLVTVSA
VL: DIQMTQSPASLSASVGETVTITCRASGNIHNYLAWYQQKQGKSPQLLVYNAKTLADGVPSRFSGSGSGTQYSLKISSLRPEDFGSYYCQHFWSPPFTFGSGTKLEIK
notes: Biotinylated for the Biacore and Octet assays; also called PYY/NPY antibody (5E12); anti-NPY/PYY antibody 5E12
